First the molecules themselves.
B1: Steroid hormone receptor ERR2, residues 100 to 176; numbered along this chain, O95718 (parent)
chain: KRLCLVCGDIASGYHYGVASCEACKAFFKRTIQGNIEYSCPATNECEITKRRRKSCQACRFMKCLKVGMLKEGVRLD

± gives the uncertainty stated by the source.

Variants of B1 are the subject of this data set. In words: abundance fitness (aPCA) (normalised: wild type 0, dead -1); higher = more abundant; growth selection in yeast, the domain comes from the species named. As to conditions: Homo sapiens.
In the case of KRLCLVCGDIASGYHYGVASCEACKAFFKRTIQGNIEYSFPATNECEITKRRRKSCQACRFMKCLKVGMLKEGVRLD [C40F], the abundance fitness was -0.876 ± 0.31.
As to KRLCLVCGDIASGYHYGVASCEACKAFFKRTIQGNIEYSGPATNECEITKRRRKSCQACRFMKCLKVGMLKEGVRLD [C40G], the abundance fitness was -0.711 ± 0.068.
For the variant KRLCLVCGDIASGYHYGVASCEACKAFFKRTIQGNIEYSIPATNECEITKRRRKSCQACRFMKCLKVGMLKEGVRLD [C40I], the abundance fitness is -0.443 ± 0.17.
In the case of KRLCLVCGDIASGYHYGVASCEACKAFFKRTIQGNIEYSYPATNECEITKRRRKSCQACRFMKCLKVGMLKEGVRLD [C40Y], the abundance fitness is -0.247 ± 0.19.
Take KRLCLVCGDIASGYHYGVASCEACKAFFKRTIQGNIEYSRPATNECEITKRRRKSCQACRFMKCLKVGMLKEGVRLD [C40R]: the abundance fitness was -0.734 ± 0.074.
In the case of KRLCLVCGDIASGYHYGVASCEACKAFFKRTIQGNIEYSEPATNECEITKRRRKSCQACRFMKCLKVGMLKEGVRLD [C40E] it was -0.726 ± 0.11; in that of KRLCLVCGDIASGYHYGVASCEACKAFFKRTIQGNIEYSKPATNECEITKRRRKSCQACRFMKCLKVGMLKEGVRLD [C40K], -0.781 ± 0.17; in that of KRLCLVCGDIASGYHYGVASCEACKAFFKRTIQGNIEYSQPATNECEITKRRRKSCQACRFMKCLKVGMLKEGVRLD [C40Q], -0.604 ± 0.12.
In the case of KRLCLVCGDIASGYHYGVASCEACKAFFKRTIQGNIEYSNPATNECEITKRRRKSCQACRFMKCLKVGMLKEGVRLD [C40N] it was -0.586 ± 0.26; in that of KRLCLVCGDIASGYHYGVASCEACKAFFKRTIQGNIEYSSPATNECEITKRRRKSCQACRFMKCLKVGMLKEGVRLD [C40S], -0.632 ± 0.094; in that of KRLCLVCGDIASGYHYGVASCEACKAFFKRTIQGNIEYSPPATNECEITKRRRKSCQACRFMKCLKVGMLKEGVRLD [C40P], -0.684 ± 0.13.
In the case of KRLCLVCGDIASGYHYGVASCEACKAFFKRTIQGNIEYSWPATNECEITKRRRKSCQACRFMKCLKVGMLKEGVRLD [C40W] it was -0.94 ± 0.12; in that of KRLCLVCGDIASGYHYGVASCEACKAFFKRTIQGNIEYSCWATNECEITKRRRKSCQACRFMKCLKVGMLKEGVRLD [P41W], -0.253 ± 0.065; in that of KRLCLVCGDIASGYHYGVASCEACKAFFKRTIQGNIEYSCNATNECEITKRRRKSCQACRFMKCLKVGMLKEGVRLD [P41N], 0.123 ± 0.074.
In the case of KRLCLVCGDIASGYHYGVASCEACKAFFKRTIQGNIEYSCGATNECEITKRRRKSCQACRFMKCLKVGMLKEGVRLD [P41G], the abundance fitness was found to be 0.128 ± 0.039.
In the case of KRLCLVCGDIASGYHYGVASCEACKAFFKRTIQGNIEYSCMATNECEITKRRRKSCQACRFMKCLKVGMLKEGVRLD [P41M] it was -0.161 ± 0.061; in that of KRLCLVCGDIASGYHYGVASCEACKAFFKRTIQGNIEYSCTATNECEITKRRRKSCQACRFMKCLKVGMLKEGVRLD [P41T], -0.147 ± 0.063.
As to KRLCLVCGDIASGYHYGVASCEACKAFFKRTIQGNIEYSCCATNECEITKRRRKSCQACRFMKCLKVGMLKEGVRLD [P41C], the abundance fitness is -0.045 ± 0.057.
The figure for KRLCLVCGDIASGYHYGVASCEACKAFFKRTIQGNIEYSCSATNECEITKRRRKSCQACRFMKCLKVGMLKEGVRLD [P41S] is -0.137 ± 0.047; for KRLCLVCGDIASGYHYGVASCEACKAFFKRTIQGNIEYSCAATNECEITKRRRKSCQACRFMKCLKVGMLKEGVRLD [P41A] it is 0.056 ± 0.043.
The figure for KRLCLVCGDIASGYHYGVASCEACKAFFKRTIQGNIEYSCDATNECEITKRRRKSCQACRFMKCLKVGMLKEGVRLD [P41D] is 0.213 ± 0.059; for KRLCLVCGDIASGYHYGVASCEACKAFFKRTIQGNIEYSCFATNECEITKRRRKSCQACRFMKCLKVGMLKEGVRLD [P41F] it is -0.214 ± 0.1.
In the case of KRLCLVCGDIASGYHYGVASCEACKAFFKRTIQGNIEYSCKATNECEITKRRRKSCQACRFMKCLKVGMLKEGVRLD [P41K] it was -0.037 ± 0.06.
With KRLCLVCGDIASGYHYGVASCEACKAFFKRTIQGNIEYSCHATNECEITKRRRKSCQACRFMKCLKVGMLKEGVRLD [P41H], the abundance fitness is -0.028 ± 0.087.
In the case of KRLCLVCGDIASGYHYGVASCEACKAFFKRTIQGNIEYSCYATNECEITKRRRKSCQACRFMKCLKVGMLKEGVRLD [P41Y] it was 0.018 ± 0.069; in that of KRLCLVCGDIASGYHYGVASCEACKAFFKRTIQGNIEYSCQATNECEITKRRRKSCQACRFMKCLKVGMLKEGVRLD [P41Q], -0.045 ± 0.063.
The figure for KRLCLVCGDIASGYHYGVASCEACKAFFKRTIQGNIEYSCEATNECEITKRRRKSCQACRFMKCLKVGMLKEGVRLD [P41E] is 0.057 ± 0.053.
In the case of KRLCLVCGDIASGYHYGVASCEACKAFFKRTIQGNIEYSCRATNECEITKRRRKSCQACRFMKCLKVGMLKEGVRLD [P41R], the abundance fitness is -0.158 ± 0.042.
The figure for KRLCLVCGDIASGYHYGVASCEACKAFFKRTIQGNIEYSCVATNECEITKRRRKSCQACRFMKCLKVGMLKEGVRLD [P41V] is 0.093 ± 0.04; for KRLCLVCGDIASGYHYGVASCEACKAFFKRTIQGNIEYSCLATNECEITKRRRKSCQACRFMKCLKVGMLKEGVRLD [P41L] it is -0.134 ± 0.045.
In the case of KRLCLVCGDIASGYHYGVASCEACKAFFKRTIQGNIEYSCIATNECEITKRRRKSCQACRFMKCLKVGMLKEGVRLD [P41I] it was -0.071 ± 0.078; in that of KRLCLVCGDIASGYHYGVASCEACKAFFKRTIQGNIEYSCPDTNECEITKRRRKSCQACRFMKCLKVGMLKEGVRLD [A42D], 0.045 ± 0.065; in that of KRLCLVCGDIASGYHYGVASCEACKAFFKRTIQGNIEYSCPCTNECEITKRRRKSCQACRFMKCLKVGMLKEGVRLD [A42C], -0.501 ± 0.1.
The figure for KRLCLVCGDIASGYHYGVASCEACKAFFKRTIQGNIEYSCPGTNECEITKRRRKSCQACRFMKCLKVGMLKEGVRLD [A42G] is -0.025 ± 0.037.
As for KRLCLVCGDIASGYHYGVASCEACKAFFKRTIQGNIEYSCPETNECEITKRRRKSCQACRFMKCLKVGMLKEGVRLD [A42E], the abundance fitness came to 0.027 ± 0.055.
In the case of KRLCLVCGDIASGYHYGVASCEACKAFFKRTIQGNIEYSCPFTNECEITKRRRKSCQACRFMKCLKVGMLKEGVRLD [A42F] it was -0.209 ± 0.09.
